Reference: the DeepSol protein solubility set

Assay: soluble on expression in E. coli; label from the status in PepcDB or PDB records

Soluble on expression in E. coli, not soluble:
MGSDKIHHHHHHMTNGRILFIREREFARSNVINYGMALVATAASKAFSVRAIDNNGLYRLYSHDDIAAEVEHFRPDVIGLSIITANALTSYETAEMLKRRFPDIPILAGGLHVSHQVGEALESGIDYVVRGEADLTIVPLLSALVEARDRGMPPDFTGIAGVSHGRGEAFVDGGNATLPLNLDEHSDVDFGLYDLGDFYRHPRDSLAIGSVLTQRGCPFRCTFCSDQYLSQSVRYRSIARSVDEIEDKLDRFGVNIFNIRDADFTMHNERVVEFCNELIRRGLHNRINLTIETDSFRVIPRDTLALMKQSGFSSIGFGIERLTPEIQRRIKKNISRSRIMENLKNCRELGFVISVHCLIGFSFDTMEDIAREQALFDELADQYVDIVSASIVVACPGTSEFSAVPPERSSWYLNPSAFPSRRPLYQVVRRFQYDPRHVPIYDFPPGMMERMMDFRDHFRKKTIGKRGRPLLWAYLLMLQIARLSEALYAASPRLERATFGWTLDWLETLNAIFTKLWAKRNDDRVNANHSCGQTPQP, MGSDKIHHHHHHMTNKYEEFKTYLKKIGSGEFTGKSLTREETKSALMLMLKEEASAAQIGGFMIAHRIRRPIPEELAGMIDAYIELGPKIQSPSNQRQPIFFGMPFDGRKKTAPIYPLTTLLLLTQKQPVILHGGSRMPVKYGVTHNELFQALGINLTGLSIEQLQSFFNHNYLALIHQPDHFPLAENLIPYRDQIGKRPPLASMELIWTCHQGSHLHISGYVHSPTEERHWKTLELMGEQNVITIKGLEGGIDLSISRSSTIGQYKNQHGTRTVFHPKDYECSGKDIEWSDITEWKKFALQALNGEGPLTKALEWNAGIYFFYAGISSDIKEGINKAKEVINSGFALKQLEKLIHWSDENIDS, MGSDKIHHHHHHMTNLLSVRDLSIALCQGQEQRYILEKVTFEIKEGETVALVGESGSGKSVTALSILQLLPFLKTLYQSGEILFNDKDLLKQKEEDLRKVRGKDIAMIFQEPMTALNPLHNVERQIGEVLKMHSDMTNQSLRAHIIDLLTQVGIHEPQKRLGSFPHELSGGQRQRVMIAMALANNPRLLIADEPTTALDVTVQARILELLVHLKKQNNMSMLFITHNLAIVRCIADRVYVMRKGKIVESAPIDQLFANAQKPYTKQLLAAEPKGYPLQADKSAPILMQGKKVRVWFPIKKGLLRRTKGYIKAVQDMDVTIRVGQTLGVVGESGSGKTTLGLSLIRMLSSKGQIIFDDIDISNFTFKKMRSLRRHIQIVFQDPFGSLSPRMSVSEIIAEGLSIHEPKLSYSERNDRVIEALHEVNLDPSTRYRYPHEFSGGQRQRIALARAIILKPRFIMLDEPTSSLDVSVQAQIISLLLHLQKKYHLGYLFISHDLKVIKALAHEVIVMRNGEMVEYGSADRIFSCPQNTYTQSLMAAAFALESDRL, MGSDKIHHHHHHMTNVGRPIETHAITVGQGSDARSIAALVRAPAQDERPTCIWLGGYRSDMTGTKALEMDDLAASLGVGAIRFDYSGHGASGGAFRDGTISRWLEEALAVLDHFKPEKAILVGSSMGGWIALRLIQELKARHDNPTQVSGMVLIAPAPDFTSDLIEPLLGDRERAELAENGYFEEVSEYSPEPNIFTRALMEDGRANRVMAGMIDTGCPVHILQGMADPDVPYQHALKLVEHLPADDVVLTLVRDGDHRLSRPQDIDRMRNAIRAMIEPRP, MGSDKIHHHHHHMTPEQFEVKANPALWERLGMNVERFSGMPKMLTEAFRGIYLSQKNRPARMEYFDGMIAELHSGRVEELVTAKDAGRPVVGTFCVYVPEEVIMAVGGICVGLCGGSQGSIPDAEKVLPRNICPMVKSAFGFKLGKICPYFQAVDLVYGETTCDAKKKTWELLDREVPTHVMEIPQMKRARDKALWLEEVKDFTSKMEEVSGRKATAEGIGAAIRVMNAKRLALQRLNDLRHHTPSPISGKDMLLIQQIAFYDDPARFTANVNELCDELDERIAAGVAVAPAATPRVMVSGTPMALPNWKLHHLIESAGAVVVNEESCIGTRYYKDLTDESTATVDEQLSLLTDRYMKIDCSCFTPNDDRIEQVLVEYRASGAQGLIDYCLQFCHTYNIEAVKLREMCEREGIPFLAIETDYSPEDVGQLQTRIEAFIEQIRG, MGSDKIHHHHHHMTPRSGKTTAGHFRYARYLIESEDENHLVTAYNQEQAYRLFIDGDGTGLMHIFDGNCEIKHDERGDHLLITTPKGNKRVYYKGGGKVNSVGAITGMSLGSVVFCEINLLHMDFIQECFRRTWAAKLRYHLADLNPPAPQHPVIKDVFDVQNTRWTHWTMDDNPILTAERKQNIINSLKKNPYLYKRDVLGQRVMPQGVIYGLFDTEKNVLDALIGEPVEMYFCADGGQSDATSMSCNIVTRVRDNGRISFRLNRVAHYYHSGADTGQVKAMSTYALELKVFIDWCVKKYQMRYTEVFVDPACKSLREELHKLGVFTLGAPNNSKDVSSKAKGIEVGIERGQNIISDGAFYLVNHSEEEYDHYHFLKEIGLYSRDDNGKPIDKDNHAMDEFRYSVNVFVHRYYN, MGSDKIHHHHHHMTPSDTNAPVDRLKIGFVLARSFTLSAFALFVDTLRLASDEFDRSGRVLADWDVLGSTRHLITSSCGVQVAPTSDLVEDPSQFQFIVVVGGLLNNEQPIDRETAAFLKKAAAKNVKLIGVCTGSFILAELGLMKSHRTCVSWLHYNAFRERFPDLQVRSDRIFNLDRTRGSCVGGSSAADMAALIVRRHISKDAERNALEVLHIEKARSALAIQTRKPLSIECNDPRIRATLIMMEQHIEGNLPIQDLAAAVGLSRRQLERLFISETKSSPAMIYRRVRLERAKHLLVQSKAPLVEIALEVGFGNASHFAKVFAQTFGQSPTGLRTAIRATL, MGSDKIHHHHHHMTPTVMVVDESRITFLAVKNALEKDGFNVIWAKNEQEAFTFLRREKIDLVFVDVFEGEESLNLIRRIREEFPDTKVAVLSAYVDKDLIINSVKAGAVDYILKPFRLDYLLERVKKIISSTPRVTVSLRKNIEDLEITLKFEDIVRKEIKRSNRTGSRFCVMYVKFEDIMRDYETIKKFFRETDYVLPISASEYLFVLTLTGKHGIEAVTRRMKEKLSERFSYTYVCYPDDGKTYEEIILTLKDRMAKPRGNES, MGSDKIHHHHHHMTQLFLHSDTPNEKELISIYEKAVSEAVELYIFSAYLTHWDVKNKLNSKLQEFKFIFGQDFGLSKKEAIRKVLKWLPSHLKFTLMVAQGIQGFHPKAVFWKNDKNEYYALIGSSNLTHAAFNSNYEANILTKISEQDFIKVKSWADEIAMKSIPVSEDWLEEYQEAEINYKKSTVRQSVMDKLFMEMPNYNQELIAARRKQMRNHQTVCNQLKNLIKQCAAGKIDNNDFYGEFNKLWSWKSENKGEGVGNRFQDKTWKRTGKSSDFRKLCIAIQSVFDAPLTERDNVVAKQIDWLKECGVSTRGSVFSEMLCQEYPDRYPVLNAPIKKFLEENKFKSAKGASEGSKYIDLSMKLRALLAMQSEIKDLAELDVLVQAEYRNRTDIDWE, MGSDKIHHHHHHMTQQTIYHIGTPGTPWGATEKAQWLAEQTKKRSYFDDVVSKIETFKSDFDVDQYGELAYDSGTYPLFVVRTKNWDDSKPTVLVTGGVHGYETSGVHGALRFIETKAKDYQPHFNVVVAPCLSPWGYETINRWNPAAIDPNRSFVADSPAGECAHIMNYVAGLGVDILAHIDLHETTDTDNSEFRPAKAAMDGKVNTNWNIPDGFYLVGNSEKPYPEFQKAVLDSVEEVTHIADADDENKLIGEDIAQRGVILLPTAKMGLCISFSKAEYATTTEVYPDSPKATPEQCIQAQVAAVTGGLDFLK, MGSDKIHHHHHHMTRVLKVDPLFPDEKVLKEAAELLRNGEVIIFPTETVYGIGADAYNEEACKKIFKLKERPADNPLIVHIHSFKQLEEIAEGYEPHLDFLKKFWPGPLTVIFRKKSEKIPPVVTADLPTVAVRMPAHPVALKLIELFGHPIAAPSANISGRPSATNVKHVIEDFMGKVKLIIDAGDTPFGLESTIVDLTKEKPVLLRPGPVEVERLKELFPELVVPDFVRKGNFKGRPLAPGMKYRHYAPLKPLILVEDLTKMEEVLKKYPDHVVICVEERKELYDDRIVVGSLKNPYSIAQNIFSALREAEKMGKEYIIVEGFEERGILFAVMNRLRKAATEIVR, MGSDKIHHHHHHMTRYKLSAEVSFSKPSEIMGRLYILPYRDNAQKVLHFNIDHPSFCKVSINQDRFRNEHLDFKCNPSDDFSIIISYEVEVNSFSKSENEEEVFLSSSKYVNVDKFKMINVRYFSFDDLIDEVISMVRDSIRYDKNNKSVKSAFGSLIMGSGVCVNYSHVAIGILRALGIPARYVIGLIPFSTKEAHAWIEVKIGDVWFPVDPTNGIKGMQYLKWAIGRDDNDVRSKIWYSKPVSFDFSFDWNFR
